The values below come from patent US20190119358A1.

Sequences and labels used below:
B1: R4120 (peptide)
peptide: Ac-[Nva]CY[Tle]KH[NMeA][Phg][Trp(7-aza)]Y[NMePhe(4-F)][Sar]CGGGCAIL-NH2
modifications: linker 2-13 via mXylylene
SMILES: CCC[C@H](NC(C)=O)C(=O)N[C@H]1CSCc2cccc(c2)CSC[C@@H](C(=O)NCC(=O)NCC(=O)NCC(=O)N[C@@H](CS)C(=O)N[C@@H](C)C(=O)N[C@H](C(=O)N[C@@H](CC(C)C)C(N)=O)[C@@H](C)CC)NC(=O)CN(C)C(=O)[C@H](Cc2ccc(F)cc2)N(C)C(=O)[C@H](Cc2ccc(O)cc2)NC(=O)[C@H](Cc2c[nH]c3ncccc23)NC(=O)[C@H](c2ccccc2)NC(=O)[C@H](C)N(C)C(=O)[C@H](Cc2c[nH]cn2)NC(=O)[C@H](CCCCN)NC(=O)[C@H](C(C)(C)C)NC(=O)[C@H](Cc2ccc(O)cc2)NC1=O
B2: R4125 (peptide)
peptide: Ac-[Nva]CY[Tle]AH[NMeK][Phg][Trp(7-aza)]Y[NMePhe(4-F)][Sar]C-NH2
modifications: linker 2-13 via mXylylene
SMILES: CCC[C@H](NC(C)=O)C(=O)N[C@H]1CSCc2cccc(c2)CSC[C@@H](C(N)=O)NC(=O)CN(C)C(=O)[C@H](Cc2ccc(F)cc2)N(C)C(=O)[C@H](Cc2ccc(O)cc2)NC(=O)[C@H](Cc2c[nH]c3ncccc23)NC(=O)[C@H](c2ccccc2)NC(=O)[C@H](CCCCN)N(C)C(=O)[C@H](Cc2c[nH]cn2)NC(=O)[C@H](C)NC(=O)[C@H](C(C)(C)C)NC(=O)[C@H](Cc2ccc(O)cc2)NC1=O
B3: R4127 (peptide)
peptide: Ac-[Nva]CY[Tle]KH[NMeA][Phg][Trp(7-aza)]Y[NMePhe(4-F)][Sar]CGGGCVIM-NH2
modifications: linker 2-13 via mXylylene
SMILES: CCC[C@H](NC(C)=O)C(=O)N[C@H]1CSCc2cccc(c2)CSC[C@@H](C(=O)NCC(=O)NCC(=O)NCC(=O)N[C@@H](CS)C(=O)N[C@H](C(=O)N[C@H](C(=O)N[C@@H](CCSC)C(N)=O)[C@@H](C)CC)C(C)C)NC(=O)CN(C)C(=O)[C@H](Cc2ccc(F)cc2)N(C)C(=O)[C@H](Cc2ccc(O)cc2)NC(=O)[C@H](Cc2c[nH]c3ncccc23)NC(=O)[C@H](c2ccccc2)NC(=O)[C@H](C)N(C)C(=O)[C@H](Cc2c[nH]cn2)NC(=O)[C@H](CCCCN)NC(=O)[C@H](C(C)(C)C)NC(=O)[C@H](Cc2ccc(O)cc2)NC1=O
B4: R4123 (peptide)
peptide: Ac-[Nva]CY[Tle]AK(Acryloyl)[NMeA][Phg][Trp(7-aza)]Y[NMePhe(4-F)][Sar]C-NH2
modifications: linker 2-13 via mXylylene
SMILES: C=CC(=O)NCCCC[C@@H]1NC(=O)[C@H](C)NC(=O)[C@H](C(C)(C)C)NC(=O)[C@H](Cc2ccc(O)cc2)NC(=O)[C@@H](NC(=O)[C@H](CCC)NC(C)=O)CSCc2cccc(c2)CSC[C@@H](C(N)=O)NC(=O)CN(C)C(=O)[C@H](Cc2ccc(F)cc2)N(C)C(=O)[C@H](Cc2ccc(O)cc2)NC(=O)[C@H](Cc2c[nH]c3ncccc23)NC(=O)[C@H](c2ccccc2)NC(=O)[C@H](C)N(C)C1=O
B5: R4122 (peptide)
peptide: Ac-[Nva]CY[Tle]A[Orn](Acryloyl)[NMeA][Phg][Trp(7-aza)]Y[NMePhe(4-F)][Sar]C-NH2
modifications: linker 2-13 via mXylylene
SMILES: C=CC(=O)NCCC[C@@H]1NC(=O)[C@H](C)NC(=O)[C@H](C(C)(C)C)NC(=O)[C@H](Cc2ccc(O)cc2)NC(=O)[C@@H](NC(=O)[C@H](CCC)NC(C)=O)CSCc2cccc(c2)CSC[C@@H](C(N)=O)NC(=O)CN(C)C(=O)[C@H](Cc2ccc(F)cc2)N(C)C(=O)[C@H](Cc2ccc(O)cc2)NC(=O)[C@H](Cc2c[nH]c3ncccc23)NC(=O)[C@H](c2ccccc2)NC(=O)[C@H](C)N(C)C1=O
B6: R4126 (peptide)
peptide: Ac-[Nva]CY[Tle]KA[NMeA][Phg][Trp(7-aza)]Y[NMePhe(4-F)][Sar]C-NH2
modifications: linker 2-13 via mXylylene
SMILES: CCC[C@H](NC(C)=O)C(=O)N[C@H]1CSCc2cccc(c2)CSC[C@@H](C(N)=O)NC(=O)CN(C)C(=O)[C@H](Cc2ccc(F)cc2)N(C)C(=O)[C@H](Cc2ccc(O)cc2)NC(=O)[C@H](Cc2c[nH]c3ncccc23)NC(=O)[C@H](c2ccccc2)NC(=O)[C@H](C)N(C)C(=O)[C@H](C)NC(=O)[C@H](CCCCN)NC(=O)[C@H](C(C)(C)C)NC(=O)[C@H](Cc2ccc(O)cc2)NC1=O
B7: R4121 (peptide)
peptide: Ac-[Nva]CY[Tle]KH[NMeA][dPhg][Trp(7-aza)]Y[NMePhe(4-F)][NMeA]C-NH2
modifications: linker 2-13 via mXylylene
SMILES: CCC[C@H](NC(C)=O)C(=O)N[C@H]1CSCc2cccc(c2)CSC[C@@H](C(N)=O)NC(=O)[C@H](C)N(C)C(=O)[C@H](Cc2ccc(F)cc2)N(C)C(=O)[C@H](Cc2ccc(O)cc2)NC(=O)[C@H](Cc2c[nH]c3ncccc23)NC(=O)[C@@H](c2ccccc2)NC(=O)[C@H](C)N(C)C(=O)[C@H](Cc2c[nH]cn2)NC(=O)[C@H](CCCCN)NC(=O)[C@H](C(C)(C)C)NC(=O)[C@H](Cc2ccc(O)cc2)NC1=O
B8: R4124 (peptide)
peptide: cyclo([PEG2]Y[Tle]KH[NMeA][Phg][Trp(7-aza)]Y[NMePhe(4-F)][Sar])
SMILES: C[C@H]1C(=O)N[C@@H](c2ccccc2)C(=O)N[C@@H](Cc2c[nH]c3ncccc23)C(=O)N[C@@H](Cc2ccc(O)cc2)C(=O)N(C)[C@@H](Cc2ccc(F)cc2)C(=O)N(C)CC(=O)NCCOCCOCCC(=O)N[C@@H](Cc2ccc(O)cc2)C(=O)N[C@@H](C(C)(C)C)C(=O)N[C@@H](CCCCN)C(=O)N[C@@H](Cc2c[nH]cn2)C(=O)N1C
B9: R4130 (peptide)
peptide: cyclo([AEEA]Y[Tle]KH[NMeA][Phg][Trp(7-aza)]Y[NMePhe(4-F)][Sar][Pra])
SMILES: C#CC[C@@H]1NC(=O)CN(C)C(=O)[C@H](Cc2ccc(F)cc2)N(C)C(=O)[C@H](Cc2ccc(O)cc2)NC(=O)[C@H](Cc2c[nH]c3ncccc23)NC(=O)[C@H](c2ccccc2)NC(=O)[C@H](C)N(C)C(=O)[C@H](Cc2c[nH]cn2)NC(=O)[C@H](CCCCN)NC(=O)[C@H](C(C)(C)C)NC(=O)[C@H](Cc2ccc(O)cc2)NC(=O)COCCOCCNC1=O
B10: R4128 (peptide)
peptide: cyclo([Ava]Y[Tle]KH[NMeA][Phg][Trp(7-aza)]Y[NMePhe(4-F)][Sar][Pra])
SMILES: C#CC[C@@H]1NC(=O)CN(C)C(=O)[C@H](Cc2ccc(F)cc2)N(C)C(=O)[C@H](Cc2ccc(O)cc2)NC(=O)[C@H](Cc2c[nH]c3ncccc23)NC(=O)[C@H](c2ccccc2)NC(=O)[C@H](C)N(C)C(=O)[C@H](Cc2c[nH]cn2)NC(=O)[C@H](CCCCN)NC(=O)[C@H](C(C)(C)C)NC(=O)[C@H](Cc2ccc(O)cc2)NC(=O)CCCCNC1=O
B11: R4129 (peptide)
peptide: Ac-[Nva]C[NMeY][Tle]KH[NMeA][Phg][Trp(7-aza)]Y[NMePhe(4-F)][Sar]C[dS][dA]K[Cys(StBu)]VIM
modifications: linker 2-13 via mXylylene

*1 amine or outer side, *2 acyl side, *3 side chain or, on linkers, in order; H or OH if unused. Bridges are numbered along the chain shown (N, C = ends). Where no end group is shown, it is not given here. [ ]: non-standard residue; d: D form. The star is where a group is joined. Trp(7-aza) = N[C@@H](Cc1c[nH]c2ncccc12)C(=O)O; NMePhe(4-F) = CN[C@@H](Cc1ccc(F)cc1)C(=O)O; mXylylene = c1cc(C[*:1])cc(C[*:2])c1; NMeY = CN[C@@H](Cc1ccc(O)cc1)C(=O)O; dPhg = N[C@@H](C(=O)O)c1ccccc1; NMeK = CN[C@@H](CCCCN)C(=O)O; Phg = N[C@H](C(=O)O)c1ccccc1; Tle = CC(C)(C)[C@H](N)C(=O)O; NMeA = CN[C@@H](C)C(=O)O; Orn = NCCC[C@H](N)C(=O)O; Pra = C#CC[C@H](N)C(=O)O; Nva = CCC[C@H](N)C(=O)O; PEG2 = NCCOCCOCCC(=O)O; AEEA = NCCOCCOCC(=O)O; Acryloyl = C=CC(=O)*; Ava = NCCCCC(=O)O; Sar = CNCC(=O)O

The experiment deals with GMPPNP-loaded H-Ras or GTP-loaded K-Ras. Briefly: FP competition, displacement of probe R4007 from Ras.
Take B1: the half-inhibitory concentration (IC50) worked out at 65.7 nM.
With B2 the figure was 110 nM.
For B3 the value was 148 nM.
As for B4, the IC50 is 85 nM.
With B5 the figure was 77.1 nM; with B6, 127 nM; with B7, 73 nM.
With B8 the figure was 88.4 nM; with B9, 268 nM; with B10, 215 nM.
For B11 the value was 227 nM.
